B1: YNL098C (protein, UniProt P01120 2-319, looked up)
Ras-like protein 2: PLNKSNIREYKLVVVGGGGVGKSALTIQLTQSHFVDEYDPTIEDSYRKQVVIDDEVSILDILDTAGQEEYSAMREQYMRNGEGFLLVYSITSKSSLDELMTYYQQILRVKDTDYVPIVVVGNKSDLENEKQVSYQDGLNMAKQMNAPFLETSAKQAINVEEAFYTLARLVRDEGGKYNKTLTENDNSKQTSQDTKGSGANSVPRNSGGHRKMSNAANGKNVNSSTTVVNARNASIESKTGLAGNQATNGKTQTDRTNIDNSTGQAGQANAQSANTVNNRVNNNSKAGQVSNAKQARKQQAAPGGNTSEASKSGSGGCC
B2: YGL252C (protein, UniProt P32608 1-588, looked up)
Retrograde regulation protein …: MSTLSDSDTETEVVSRNLCGIVDIGSNGIRFSISSKAAHHARIMPCVFKDRVGLSLYEVQYNTHTNAKCPIPRDIIKEVCSAMKRFKLICDDFGVPETSVRVIATEATRDAINADEFVNAVYGSTGWKVEILGQEDETRVGIYGVVSSFNTVRGLYLDVAGGSTQLSWVISSHGEVKQSSKPVSLPYGAGTLLRRMRTDDNRALFYEIKEAYKDAIEKIGIPQEMIDDAKKEGGFDLWTRGGGLRGMGHLLLYQSEGYPIQTIINGYACTYEEFSSMSDYLFLKQKIPGSSKEHKIFKVSDRRALQLPAVGLFMSAVFEAIPQIKAVHFSEGGVREGSLYSLLPKEIRAQDPLLIASRPYAPLLTEKYLYLLRTSIPQEDIPEIVNERIAPALCNLAFVHASYPKELQPTAALHVATRGIIAGCHGLSHRARALIGIALCSRWGGNIPESEEKYSQELEQVVLREGDKAEALRIVWWTKYIGTIMYVICGVHPGGNIRDNVFDFHVSKRSEVETSLKELIIDDANTTKVKEESTRKNRGYEVVVRISKDDLKTSASVRSRIITLQKKVRKLSRGSVERVKIGVQFYEE
B3: YLR330W (protein, UniProt Q12114 1-671, looked up)
Chitin biosynthesis protein …: MSSVDVLLTVGKLDASLALLTTQDHHVIEFPTVLLPENVKAGSIIKMQVSQNLEEEKKQRNHFKSIQAKILEKYGTHKPESPVLKIVNVTQTSCVLAWDPLKLGSAKLKSLILYRKGIRSMVIPNPFKVTTTKISGLSVDTPYEFQLKLITTSGTLWSEKVILRTHKMTDMSGITVCLGPLDPLKEISDLQISQCLSHIGARPLQRHVAIDTTHFVCNDLDNEESNEELIRAKHNNIPIVRPEWVRACEVEKRIVGVRGFYLDADQSILKNYTFPPVNEEELSYSKENEPVAEVADENKMPEDTTDVEQVASPNDNESNPSEAKEQGEKSGHETAPVSPVEDPLHASTALENETTIETVNPSVRSLKSEPVGTPNIEENKADSSAEAVVEEPNEAVAESSPNEEATGQKSEDTDTHSNEQADNGFVQTEEVAENNITTESAGENNEPADDAAMEFGRPEAEIETPEVNESIEDANEPAEDSNEPVEDSNKPVKDSNKPVEDSNKPVEDSNKPVEDSNKPVEDANEPVEDTSEPVEDAGEPVQETNEFTTDIASPRHQEEDIELEAEPKDATESVAVEPSNEDVKPEEKGSEAEDDINNVSKEAASGESTTHQKTEASASLESSAVTEEQETTEAEVNTDDVLSTKEAKKNTGNSNSNKKKNKKNKKKGKKK
B4: YJL155C (protein, UniProt P32604 1-452, looked up)
Fructose-2,6-bisphosphatase: MGYSTISNDNDIKVCVIMVGLPARGKSFISQKIIRYLSWLSIKAKCFNVGNYRRDVSGNVPMDAEFFNFENTDNFKLRELAAQNAIKDIVNFFTKEDGSVAVFDATNSTRKRRKWLKDICEKNNIQPMFLESWSNDHELIINNAKDIGSTSPDYENSEPHVAEADFLERIRQYERFYEPLDPQKDKDMTFIKLVNIIEEVVINKIRTYLESRIVFYVMNIRPKPKYIWLSRHGESIYNVEKKIGGDSSLSERGFQYAKKLEQLVKESAGEINLTVWTSTLKRTQQTANYLPYKKLQWKALDELDAGVCDGMTYEEIEKEYPEDFKARDNDKYEYRYRGGESYRDVVIRLEPVIMELERQENVLIITHQAVLRCIYAYFMNVPQEESPWMSIPLHTLIKLEPRAYGTKVTKIKANIPAVSTYKEKGTSQVGELSQSSTKLHQLLNDSPLEDKF
B5: YJL128C (protein, UniProt P08018 1-668, looked up)
MAP kinase kinase PBS2: MEDKFANLSLHEKTGKSSIQLNEQTGSDNGSAVKRTSSTSSHYNNINADLHARVKAFQEQRALKRSASVGSNQSEQDKGSSQSPKHIQQIVNKPLPPLPVAGSSKVSQRMSSQVVQASSKSTLKNVLDNQETQNITDVNINIDTTKITATTIGVNTGLPATDITPSVSNTASATHKAQLLNPNRRAPRRPLSTQHPTRPNVAPHKAPAIINTPKQSLSARRGLKLPPGGMSLKMPTKTAQQPQQFAPSPSNKKHIETLSNSKVVEGKRSNPGSLINGVQSTSTSSSTEGPHDTVGTTPRTGNSNNSSNSGSSGGGGLFANFSKYVDIKSGSLNFAGKLSLSSKGIDFSNGSSSRITLDELEFLDELGHGNYGNVSKVLHKPTNVIMATKEVRLELDEAKFRQILMELEVLHKCNSPYIVDFYGAFFIEGAVYMCMEYMDGGSLDKIYDESSEIGGIDEPQLAFIANAVIHGLKELKEQHNIIHRDVKPTNILCSANQGTVKLCDFGVSGNLVASLAKTNIGCQSYMAPERIKSLNPDRATYTVQSDIWSLGLSILEMALGRYPYPPETYDNIFSQLSAIVDGPPPRLPSDKFSSDAQDFVSLCLQKIPERRPTYAALTEHPWLVKYRNQDVHMSEYITERLERRNKILRERGENGLSKNVPALHMGGL
B6: YMR216C (protein, UniProt Q03656 1-742, looked up)
Serine/threonine-protein …: MGSSINYPGFVTKSAHLADTSTDASISCEEATSSQEAKKNFFQRDYNMMKKAPAPTKSKLSLALQTSKSSSSANGTVQEDTSSKTEDFSTKSIKKKPDSGVESHVSIQSDSGPQSDSDLDSDSSISSCDERNEESLKDYRPGGYHPAFKGEPYKDARYILVRKLGWGHFSTVWLAKDMVNNTHVAMKIVRGDKVYTEAAEDEIKLLQRVNDADNTKEDSMGANHILKLLDHFNHKGPNGVHVVMVFEVLGENLLALIKKYEHRGIPLIYVKQISKQLLLGLDYMHRRCGIIHTDIKPENVLMEIGDVEGIVQMVEALDKQKREAKRLQRHVSRSSDITANDSSDEKWAECQTSMPCGSSSNSKSRSIEKDLSKRCFRRPRRHTIITGSQPLPSPISSSNFFEMRAHFCGSSHNSFSSVSGNRNIPSSINNNSINNGIGIKNSNNSFLNSVPHSVTRMFINEDSNDNNNNDNSKNKNNNNNNSNNNNNEDIMNTPLHEEQLADSLSTFDISNISQSSDTNGPYISNTMDSNSNVSTDINSPENLIQIKIADLGNACWYDEHYTNSIQTREYRSPEVLLGAPWGCGADIWSTACLIFELITGDFLFEPDEGHSYTKDDDHIAQIIELLGELPSYLLRNGKYTRTFFNSRGLLRNISKLKFWPLEDVLTEKYKFSKDEAKEISDFLSPMLQLDPRKRADAGGLVNHPWLKDTLGMEEIRVPDRELYGSGSDIPGWFEEVRDHKRH
B7: YNL020C (protein, UniProt P53974 1-638, looked up)
Actin-regulating kinase 1: MNQPQIGTYNVGTQLTVGSHQVEIIKYLTSGGFAQVYSALINPPDPHSNSSVACLKRVIVPDKPSLNTLRAEVDAMRLLKNNRYVVSYIDSHAAKAMLHNGSYEVFVLMEYCERGGLIDFMNTRLQNRLHEFEILQIMSQVTQGVAAMHALQPPLIHRDIKIENVLISANNEYKLCDFGSVCGIIRPPRNSQELSYVQQDILKNTTAQYRSPEMIDTFRGLPIDEKSDIWALGIFLYKLCYYTTPFEKGGDLAILSGKFEFPLYPNYSEQLKGLIRDILVQDPRHRPNVYQLLKRISIMQNVPCPINDIQVVQAPSSHLNLTELHQLSATQNILSLNSPTTMENTMPNATFQISMADNTTTAQMHPNRKPSQIAYDASFSNSAKGSQPLFDKSQNMYHALDPPLVEPLASSVSNNDNELKANSATKLKQAIVSEAHTFRQNNSIDFPLQNIIPQYEDSSSSSDESYSGDVDELKKTRSLGSYSTRGNIKKNQSVKESLTSSSLPGTSFTPTSTKVNLKHENSPFKSTFVNTIDNSKDDLNKPSYEDLDVSKQNLKNSIQQRMIDKLNSSEESFNARKMSKVKLHEKGEIDKPTMLKSSGPISKDKKTKPTPPPKPSHLKPKPPPKPLLLAGRKLSLDK

system: ABP1; experiment: DHFR-PCA on solid medium, bait ABP1 (Fig. 1B); format: cell-based, Saccharomyces cerevisiae; conditions: bait ABP1, label = prey; 2-4 replicates
Text: Supplement 41467_2021_21873_MOESM8_ESM.xlsx, sheet "Fig1B" | column: medsize; medrep; Ratio; Score

Question: Which “medrep (log2 median colony size normalized to plate background, PCA score)” value does the source give for B1 here?
Answer: 3.322

Question: Which “medrep (log2 median colony size normalized to plate background, PCA score)” value does the source give for B2 here?
Answer: 2.12

Question: For B3, which “medrep (log2 median colony size normalized to plate background, PCA score)” value is on record?
Answer: 3.386

Question: With B4 as the molecule, how does the “medrep (log2 median colony size normalized to plate background, PCA score)” value read?
Answer: 1.596

Question: B5 was tested. Which “medrep (log2 median colony size normalized to plate background, PCA score)” value did it give?
Answer: 2.693

Question: For B6, which “medrep (log2 median colony size normalized to plate background, PCA score)” value is on record?
Answer: 1.64

Question: For B7, which “medrep (log2 median colony size normalized to plate background, PCA score)” value is on record?
Answer: 4.233

Reference: PMC7954794, “Protein context shapes the specificity of SH3 domain-mediated interactions in vivo” (Nature Communications, 2021)
